{
  "source": "patent US20220332804A1",
  "about": "(CSL INNOVATION, published 2022)",
  "assay_in_all_cases": "SPR, KD relative to WT C2;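 note: biacore SPR at 37 °C, anti-C2 mAbs captured on anti-human IgG chips with alanine or serine point mutants of C2 as analyte, KD from 1:1 fit compared with wild-type C2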",
  "key": {"[1]": {"target": "T1, human C2 N380A (human, UniProt P06681 21-752)", "T1 sequence": "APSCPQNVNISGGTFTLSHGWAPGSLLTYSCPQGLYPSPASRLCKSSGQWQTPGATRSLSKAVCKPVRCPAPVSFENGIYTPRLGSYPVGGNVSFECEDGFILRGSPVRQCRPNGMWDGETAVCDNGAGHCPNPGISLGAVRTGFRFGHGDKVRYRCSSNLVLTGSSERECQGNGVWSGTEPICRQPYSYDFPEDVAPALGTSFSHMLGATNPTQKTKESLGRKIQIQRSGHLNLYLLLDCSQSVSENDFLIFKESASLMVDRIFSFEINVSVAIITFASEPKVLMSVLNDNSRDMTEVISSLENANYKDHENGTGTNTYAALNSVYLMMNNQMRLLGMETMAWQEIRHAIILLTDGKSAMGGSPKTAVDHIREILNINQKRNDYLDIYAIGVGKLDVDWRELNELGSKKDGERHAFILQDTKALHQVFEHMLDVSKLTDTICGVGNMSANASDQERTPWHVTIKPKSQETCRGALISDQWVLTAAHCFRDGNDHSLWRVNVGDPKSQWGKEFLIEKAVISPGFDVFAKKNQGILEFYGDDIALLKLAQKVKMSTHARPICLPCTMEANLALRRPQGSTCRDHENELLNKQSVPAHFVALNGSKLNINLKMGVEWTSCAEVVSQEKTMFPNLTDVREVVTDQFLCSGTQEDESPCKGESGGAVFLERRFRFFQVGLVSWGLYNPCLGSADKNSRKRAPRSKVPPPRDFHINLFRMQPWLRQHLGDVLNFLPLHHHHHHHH"}, "[2]": {"target": "T2, human C2 K430A (human, UniProt P06681 21-752)", "T2 sequence": "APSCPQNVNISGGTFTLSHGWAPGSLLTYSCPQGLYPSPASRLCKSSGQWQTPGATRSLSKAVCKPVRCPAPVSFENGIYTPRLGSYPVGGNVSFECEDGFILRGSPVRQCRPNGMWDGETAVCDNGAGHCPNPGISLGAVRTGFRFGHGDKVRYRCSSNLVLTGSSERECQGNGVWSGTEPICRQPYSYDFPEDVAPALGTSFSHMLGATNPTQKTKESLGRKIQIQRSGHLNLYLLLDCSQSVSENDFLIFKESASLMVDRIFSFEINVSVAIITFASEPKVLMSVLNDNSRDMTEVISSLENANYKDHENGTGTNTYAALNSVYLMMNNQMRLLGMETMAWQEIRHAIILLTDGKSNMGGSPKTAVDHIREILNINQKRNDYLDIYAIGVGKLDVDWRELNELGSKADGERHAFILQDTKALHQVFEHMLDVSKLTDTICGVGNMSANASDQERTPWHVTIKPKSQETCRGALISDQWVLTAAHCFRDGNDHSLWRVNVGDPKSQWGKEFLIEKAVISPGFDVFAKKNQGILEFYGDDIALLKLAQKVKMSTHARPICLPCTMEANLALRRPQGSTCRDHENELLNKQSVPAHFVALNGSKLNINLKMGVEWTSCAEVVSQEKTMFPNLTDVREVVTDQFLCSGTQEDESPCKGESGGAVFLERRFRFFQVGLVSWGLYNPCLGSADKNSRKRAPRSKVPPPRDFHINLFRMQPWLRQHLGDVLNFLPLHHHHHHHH"}, "[3]": {"target": "T3, human C2 H451A (human, UniProt P06681 21-752)", "T3 sequence": "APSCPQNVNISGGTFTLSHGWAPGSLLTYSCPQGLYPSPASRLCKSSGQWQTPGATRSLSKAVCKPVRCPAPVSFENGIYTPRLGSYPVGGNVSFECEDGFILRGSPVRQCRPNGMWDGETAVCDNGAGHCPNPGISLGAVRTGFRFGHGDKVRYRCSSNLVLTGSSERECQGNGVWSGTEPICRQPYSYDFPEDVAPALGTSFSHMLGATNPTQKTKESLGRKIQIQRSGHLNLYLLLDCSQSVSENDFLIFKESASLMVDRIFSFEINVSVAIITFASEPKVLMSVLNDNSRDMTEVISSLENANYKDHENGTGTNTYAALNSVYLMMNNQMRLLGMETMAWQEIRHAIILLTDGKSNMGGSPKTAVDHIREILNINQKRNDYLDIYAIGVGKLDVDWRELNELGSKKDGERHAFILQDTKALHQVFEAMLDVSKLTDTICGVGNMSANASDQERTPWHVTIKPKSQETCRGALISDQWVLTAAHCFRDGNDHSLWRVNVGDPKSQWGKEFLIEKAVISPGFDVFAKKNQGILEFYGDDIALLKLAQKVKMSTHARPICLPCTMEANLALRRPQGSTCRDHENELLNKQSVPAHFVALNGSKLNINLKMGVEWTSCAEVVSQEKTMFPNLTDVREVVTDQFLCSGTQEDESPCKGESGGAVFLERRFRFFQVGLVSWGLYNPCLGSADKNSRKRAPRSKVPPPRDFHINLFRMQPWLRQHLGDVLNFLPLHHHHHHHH"}, "[4]": {"target": "T4, human C2 S469A (human, UniProt P06681 21-752)", "T4 sequence": "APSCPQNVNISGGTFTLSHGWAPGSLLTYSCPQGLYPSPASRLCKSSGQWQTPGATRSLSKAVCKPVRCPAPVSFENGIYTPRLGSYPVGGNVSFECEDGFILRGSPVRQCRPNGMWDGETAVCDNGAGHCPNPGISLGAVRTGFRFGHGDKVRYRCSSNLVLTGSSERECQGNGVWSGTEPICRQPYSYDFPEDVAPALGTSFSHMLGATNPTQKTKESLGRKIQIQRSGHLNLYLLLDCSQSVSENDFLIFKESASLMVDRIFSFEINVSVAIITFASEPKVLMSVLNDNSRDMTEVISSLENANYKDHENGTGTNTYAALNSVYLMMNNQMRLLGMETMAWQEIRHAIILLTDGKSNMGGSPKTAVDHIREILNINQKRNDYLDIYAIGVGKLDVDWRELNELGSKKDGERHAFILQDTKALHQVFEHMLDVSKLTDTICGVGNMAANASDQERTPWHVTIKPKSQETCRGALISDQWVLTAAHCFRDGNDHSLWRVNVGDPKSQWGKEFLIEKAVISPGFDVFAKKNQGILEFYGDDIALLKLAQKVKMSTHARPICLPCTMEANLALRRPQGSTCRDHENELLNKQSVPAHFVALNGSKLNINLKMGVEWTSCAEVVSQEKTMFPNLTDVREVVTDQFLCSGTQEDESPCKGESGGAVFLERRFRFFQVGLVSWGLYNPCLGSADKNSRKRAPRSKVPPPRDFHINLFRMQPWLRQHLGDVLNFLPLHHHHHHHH"}},
  "data": [
    {"binder": "RF16-242 (antibody, human IgG4 S228P, lambda, V domains shown, pH-dependent anti-C2 antibody from a phage display library) VH: EVQLLQSGAEVKKPGESLKISCKGSGYSFTSYWIGWVRQMPGKGLEWMGIIYPGDSDTRYSPSFQGQVTISADKSISTAYLQWSSLKASDTAMYYCARRGHYGDYFDYWGQGTLVTVSS VL: SYELTQPPSVSVSPGQTARITCSGDALPKKYAYWYHQKSGQAPVLVIYEDRRRPSEIPERFSGSSSGTMATLTITGAQVEDEGVYFCYSRDRAGNQRVFGGGTQLTVLG", "values": [
      {"measurement": "Fold diff", "setting": "[1]", "value": 1, "unit": "fold"},
      {"measurement": "Fold diff", "setting": "[2]", "value": 13, "unit": "fold"},
      {"measurement": "Fold diff", "setting": "[3]", "value": 3, "unit": "fold"},
      {"measurement": "Fold diff", "setting": "[4]", "value": 3, "unit": "fold"}
    ]}
  ]
}
